± gives the standard deviation of the averaged measurements.
B1: library; a variant is named by its letters at N, in order (parent)
chain: GCUGUCACCGAGAAACUGUGAAGUAUAUCUUAAACCUGGGCACUUAAAAGAUAUAUGGAGUUAGUAGUGCAACCUGCUCGGUCUGAUGAGUCCNNNNNNGGACGAAACAGC

What was measured:
cyclic di-GMP [1] = variants of: B1; assay: normalized RNA/DNA level without ligand (relative to sTRSVctl = 100) (log10 (% of sTRSVctl)); HEK293T; ligand: cyclic di-GMP (c-di-GMP-II aptamer); higher = less ribozyme self-cleavage, higher mRNA level; details: reporter: mCherry (pCS4076), ligand present: no
In short: (§1)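 Ribozyme switch library plasmids with mCherry reporters (eGFP in certain ligand experiments) went into HEK293T cells at 4 µg per 6-well well. Where ligand was used, it was applied 1 h before transfection, and total RNA was extracted with EDTA 72 h later for reverse transcription, amplification, barcoding and sequencing. RNA level is the RNA-to-DNA read ratio normalized to a spiked-in non-cleaving sequence or to the leading sequences, then scaled and log-transformed. Scaling was ×100 with log10, the leading set comprised 25 sequences, and the cutoff was ≥100 DNA reads.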

cyclic di-GMP [2] = variants of: B1; assay: normalized RNA/DNA level with ligand (relative to sTRSVctl = 100) (log10 (% of sTRSVctl)); HEK293T; ligand: cyclic di-GMP (c-di-GMP-II aptamer); ligand concentration (+) RNA-Seq: 1 mM; higher = less ribozyme self-cleavage, higher mRNA level; details: reporter: mCherry (pCS4076), ligand present: yes
In short: as §1

| Variant | normalized RNA/DNA level without ligand (log10) (cyclic di-GMP [1]) | normalized RNA/DNA level with ligand (log10) (cyclic di-GMP [2]) |
| --- | --- | --- |
| AAUGCA | 1.666 ± 0.0048 | 1.78 ± 0.14 |
| AAUGCG | 1.704 ± 0.0078 | 1.82 ± 0.15 |
| AAUGCC | 1.73 ± 0.034 | 1.83 ± 0.11 |
| GAUGAA | 1.45 ± 0.1 | 1.65 ± 0.067 |
| GAUGAG | 1.55 ± 0.067 | 1.71 ± 0.059 |
| GAUGAC | 1.65 ± 0.019 | 1.82 ± 0.12 |
| GAUGAU | 1.56 ± 0.064 | 1.75 ± 0.099 |
| UAUGAG | 1.653 ± 0.0081 | 1.82 ± 0.12 |
| GCAAAA | 1.35 ± 0.18 | 1.59 ± 0.078 |
| CAUAGA | 1.54 ± 0.073 | 1.69 ± 0.031 |
| CAUAGG | 1.688 ± 0.011 | 1.85 ± 0.093 |
| CAUAGC | 1.73 ± 0.062 | 1.84 ± 0.13 |
| CAUAAG | 1.706 ± 0.013 | 1.82 ± 0.1 |
| CAUAAC | 1.62 ± 0.028 | 1.75 ± 0.1 |
| AAUGUA | 1.525 ± 0.01 | 1.64 ± 0.16 |
| AAUGUC | 1.68 ± 0.03 | 1.84 ± 0.11 |
| AAGUGU | 1.6 ± 0.034 | 1.76 ± 0.14 |
| AAGUGG | 1.68 ± 0.033 | 1.78 ± 0.12 |
| AAUUUU | 1.73 ± 0.033 | 1.85 ± 0.12 |
| AAUUUG | 1.62 ± 0.071 | 1.75 ± 0.12 |
| AAUUUC | 1.721 ± 0.0067 | 1.87 ± 0.08 |
| AAUUUA | 1.61 ± 0.031 | 1.81 ± 0.15 |
| UAUGUU | 1.65 ± 0.008 | 1.79 ± 0.15 |
| UAUGUC | 1.73 ± 0.034 | 1.85 ± 0.099 |

| Variant | normalized RNA/DNA level without ligand (log10) (cyclic di-GMP [1]) | normalized RNA/DNA level with ligand (log10) (cyclic di-GMP [2]) |
| --- | --- | --- |
| UAUGUG | 1.71 ± 0.047 | 1.86 ± 0.13 |
| CAUGAG | 1.714 ± 0.012 | 1.84 ± 0.074 |
| CAUGAU | 1.57 ± 0.027 | 1.73 ± 0.13 |
| AAGUUU | 1.724 ± 0.0032 | 1.88 ± 0.076 |
| AAGUUC | 1.6603 ± 0.0013 | 1.84 ± 0.11 |
| AAGUUG | 1.56 ± 0.072 | 1.75 ± 0.11 |
| GAUACC | 1.758 ± 0.0066 | 1.89 ± 0.066 |
| GAUACG | 1.62 ± 0.019 | 1.76 ± 0.12 |
| GAUACU | 1.7 ± 0.025 | 1.82 ± 0.068 |
| GAGUUU | 1.79 ± 0.031 | 1.87 ± 0.11 |
| GAGUUC | 1.81 ± 0.069 | 1.9 ± 0.06 |
| GAUUCG | 1.7482 ± 0.0012 | 1.88 ± 0.06 |
| GAUUCC | 1.8 ± 0.097 | 1.87 ± 0.14 |
| GAUUCA | 1.72 ± 0.021 | 1.85 ± 0.064 |
| GAUUCU | 1.748 ± 0.014 | 1.86 ± 0.12 |
| UAUUCA | 1.8 ± 0.032 | 1.88 ± 0.053 |
| UAUUCG | 1.756 ± 0.0047 | 1.87 ± 0.13 |
| UAUUCC | 1.77 ± 0.029 | 1.88 ± 0.12 |
| UAUCGA | 1.609 ± 0.0048 | 1.79 ± 0.12 |
| UAUCGG | 1.743 ± 0.0093 | 1.84 ± 0.11 |
| UAUCGU | 1.67 ± 0.02 | 1.79 ± 0.095 |
| UAUCGC | 1.76 ± 0.019 | 1.83 ± 0.15 |
| GAUAGG | 1.573 ± 0.0085 | 1.73 ± 0.087 |
| GAUAGC | 1.64 ± 0.019 | 1.76 ± 0.14 |

| Variant | normalized RNA/DNA level without ligand (log10) (cyclic di-GMP [1]) | normalized RNA/DNA level with ligand (log10) (cyclic di-GMP [2]) |
| --- | --- | --- |
| GAUAGU | 1.62 ± 0.045 | 1.78 ± 0.1 |
| GAUAGA | 1.46 ± 0.11 | 1.64 ± 0.094 |
| CAUACA | 1.38 ± 0.11 | 1.58 ± 0.1 |
| CAUACG | 1.81 ± 0.051 | 1.91 ± 0.052 |
| CAUACU | 1.51 ± 0.044 | 1.7 ± 0.12 |
| AAUGGU | 1.62 ± 0.048 | 1.76 ± 0.1 |
| AAUACC | 1.71 ± 0.031 | 1.86 ± 0.069 |
| AAUACU | 1.71 ± 0.023 | 1.84 ± 0.085 |
| AAUACA | 1.56 ± 0.017 | 1.74 ± 0.1 |
| ACAACG | 1.46 ± 0.1 | 1.65 ± 0.12 |
| ACAACC | 1.67 ± 0.02 | 1.82 ± 0.1 |
| ACAACA | 1.46 ± 0.076 | 1.68 ± 0.099 |
| GAUUUC | 1.79 ± 0.13 | 1.9 ± 0.12 |
| GAUUUG | 1.6 ± 0.025 | 1.76 ± 0.11 |
| GAUUUU | 1.656 ± 0.01 | 1.81 ± 0.14 |
| UAUCUA | 1.683 ± 0.0069 | 1.81 ± 0.097 |
| UAUCUC | 1.81 ± 0.039 | 1.9 ± 0.1 |
| UAUCUG | 1.725 ± 0.011 | 1.87 ± 0.089 |
| UAUCUU | 1.72 ± 0.054 | 1.88 ± 0.088 |
| CAUUAG | 1.74 ± 0.021 | 1.84 ± 0.087 |
| CAUUAC | 1.6236 ± 0.00067 | 1.79 ± 0.13 |
| GCAACC | 1.647 ± 0.0045 | 1.79 ± 0.097 |
| GCAACG | 1.54 ± 0.046 | 1.78 ± 0.11 |
| GAUUAC | 1.722 ± 0.0096 | 1.83 ± 0.081 |

| Variant | normalized RNA/DNA level without ligand (log10) (cyclic di-GMP [1]) | normalized RNA/DNA level with ligand (log10) (cyclic di-GMP [2]) |
| --- | --- | --- |
| GAUUAG | 1.68 ± 0.046 | 1.8 ± 0.089 |
| GAUUAU | 1.62 ± 0.022 | 1.77 ± 0.07 |
| GAUCGG | 1.747 ± 0.013 | 1.82 ± 0.034 |
| GAUCGU | 1.65 ± 0.046 | 1.81 ± 0.087 |
| GAUCGC | 1.74 ± 0.019 | 1.86 ± 0.051 |
| CAUCAC | 1.67 ± 0.027 | 1.8 ± 0.069 |
| CAUCAG | 1.69 ± 0.044 | 1.76 ± 0.13 |
| CAUCAU | 1.56 ± 0.064 | 1.72 ± 0.072 |
| UAUUUC | 1.75 ± 0.0095 | 1.87 ± 0.1 |
| UAUUUG | 1.732 ± 0.0073 | 1.86 ± 0.1 |
| UAUUUU | 1.73 ± 0.062 | 1.84 ± 0.13 |
| UAUUUA | 1.707 ± 0.0067 | 1.84 ± 0.12 |
| CAUCUA | 1.4 ± 0.058 | 1.58 ± 0.066 |
| CAUCUU | 1.56 ± 0.04 | 1.75 ± 0.1 |
| CAUCUG | 1.76 ± 0.073 | 1.88 ± 0.13 |
| GAUUGU | 1.65 ± 0.037 | 1.82 ± 0.09 |
| GAUUGC | 1.685 ± 0.0072 | 1.84 ± 0.12 |
| UCAAAG | 1.602 ± 0.012 | 1.77 ± 0.12 |
| UCAAAU | 1.5 ± 0.063 | 1.71 ± 0.092 |
| UCAAAC | 1.63 ± 0.026 | 1.8 ± 0.079 |
| CAUCGC | 1.783 ± 0.015 | 1.87 ± 0.043 |
| CAUCGG | 1.78 ± 0.048 | 1.84 ± 0.12 |
| CAUCGU | 1.74 ± 0.095 | 1.83 ± 0.098 |
| UAUUAG | 1.73 ± 0.042 | 1.87 ± 0.068 |

| Variant | normalized RNA/DNA level without ligand (log10) (cyclic di-GMP [1]) | normalized RNA/DNA level with ligand (log10) (cyclic di-GMP [2]) |
| --- | --- | --- |
| UAUUAU | 1.682 ± 0.011 | 1.82 ± 0.14 |
| UAUAUA | 1.68 ± 0.076 | 1.86 ± 0.11 |
| UAUAUG | 1.71 ± 0.044 | 1.84 ± 0.12 |
| UAUAUU | 1.68 ± 0.043 | 1.86 ± 0.12 |
| CAGUUG | 1.76 ± 0.019 | 1.87 ± 0.11 |
| CAUGGG | 1.682 ± 0.0032 | 1.84 ± 0.094 |
| CAUGGC | 1.715 ± 0.005 | 1.84 ± 0.09 |
| CAUGGU | 1.648 ± 0.0024 | 1.77 ± 0.16 |
| AAUCUC | 1.74 ± 0.032 | 1.86 ± 0.075 |
| AAUCUA | 1.55 ± 0.055 | 1.75 ± 0.071 |
| AAUCUG | 1.62 ± 0.031 | 1.8 ± 0.061 |
| AAUCUU | 1.74 ± 0.09 | 1.86 ± 0.1 |
| CAUGCG | 1.81 ± 0.029 | 1.9 ± 0.14 |
| CAUGCC | 1.79 ± 0.029 | 1.89 ± 0.15 |
| CAUGCU | 1.72 ± 0.056 | 1.84 ± 0.097 |
| CAUGCA | 1.52 ± 0.05 | 1.66 ± 0.067 |
| AAUAUA | 1.53 ± 0.054 | 1.72 ± 0.13 |
| AAUAUU | 1.667 ± 0.015 | 1.83 ± 0.083 |
| AAUAUC | 1.67 ± 0.022 | 1.81 ± 0.079 |
| AAUAUG | 1.61 ± 0.06 | 1.74 ± 0.11 |
